{"source": "paper PMC4912634", "note": "pKd: −log10 of the molar value."}
{"biological_target": "tubulin heterodimer (porcine/bovine brain tubulin) (not stated (porcine or bovine brain)) (UniProt Q6B856)", "assay": "ITC; PN2-3 proteins/peptides titrated into tubulin in the cell; 15 °C; 1xBRB80 (80 mM PIPES-K, 1 mM MgCl2, 1 mM EGTA, pH 6.8); one set of binding sites model; tubulin 9 μM for wild type and mutant PN2-3"}
{"substance": "human CPAP PN2-3 domain (aa 319-394) EE343RR (from UniProt Q9HC77 319-394) (domain or fragment)", "pKd": 6.71}
{"substance": "PN2-3N peptide (N-terminal helical region of PN2-3, aa 323-361 of CPAP) (from UniProt Q9HC77 323-361)", "pKd": 4.17}
{"substance": "human CPAP PN2-3 domain (aa 319-394), wild type (from UniProt Q9HC77 319-394) (domain or fragment)", "pKd": 7.59}
{"substance": "human CPAP PN2-3 domain (aa 319-394) F375A (from UniProt Q9HC77 319-394) (domain or fragment)", "pKd": 5.55}
